This assay addresses human NKG2A (human, UniProt P26715 94-233, limits assumed). The assay is described as follows: not stated; drawn table 'Binding affinity of anti-NKG2A scFv to human NKG2A', column 'Binding affinity, KD (M)'.

human NKG2A, sequence (P26715 94-233 limits assumed): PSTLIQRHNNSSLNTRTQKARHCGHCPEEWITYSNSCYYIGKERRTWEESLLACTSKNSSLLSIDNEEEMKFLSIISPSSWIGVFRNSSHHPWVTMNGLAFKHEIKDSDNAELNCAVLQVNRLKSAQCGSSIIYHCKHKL

B1: murine anti-NKG2A scFv (scFv)
scFv: QVQLQQPGAELVRPGASVKLSCKASGYTFTSYWMNWVKQRPEQGLQWIGRIDPYDSETHYSQKFKDKAILTVDKSSSTAYMRLSSLTSEDSAVYYCARGGYDFDVGTLYWFFDVWGAGTTVTVSSGGSTRSSSSGGGGSGGGGDIQMTQSPASLSASVGETVTITCRASENIYSYLAWYQQKQGKSPQFLVYNAKTLAEGVPSRFSGSGSGTQFSLKINSLQPEDFGSYYCQHHYGTPRTFGGGTKLEIKAAAHHHHHHHH
notes: Derived from the VH and VL of murine antibody Z270 (U.S. Pat. No. 9,683,041), expressed in Hi5 cells, purified on Ni-NTA; also called αNKG2A-scFv
In the case of B1, the Kd is 0.0665 nM.

The values above are taken from US20230374161A1 (Stanford University, published 2023).
